B1: wtERO1α: recombinant wild-type ERO1α (protein)
chain: EEQPPETAAQRCFCQVSGYLDDCTCDVETIDRFNNYRLFPRLQKLLESDYFRYYKVNLKRPCPFWNDISQCGRRDCAVKPCQSDEVPDGIKSASYKYSEEANNLIEECEQAERLGAVDESLSEETQKAVLQWTKHDDSSDNFCEADDIQSPEAEYVDLLLNPERYTGYKGPDAWKIWNVIYEENCFKPQTIKRPLNPLASGQGTSEENTFYSWLEGLCVEKRAFYRLISGLHASINVHLSARYLLQETWLEKKWGHNITEFQQRFDGILTEGEGPRRLKNLYFLYLIELRALSKVLPFFERPDFQLFTGNKIQDEENKMLLLEILHEIKSFPLHFDENSFFAGDKKEAHKLKEDFRLHFRNISRIMDCVGCFKCRLWGKLQTQGLGTALKILFSEKLIANMPESGPSYEFHLTRQEIVSLFNAFGRISTSVKELENFRNLLQNIH
B2: mERO1α: activity-null ERO1α-Cys94Ser (protein)
chain: EEQPPETAAQRCFCQVSGYLDDCTCDVETIDRFNNYRLFPRLQKLLESDYFRYYKVNLKRPCPFWNDISQSGRRDCAVKPCQSDEVPDGIKSASYKYSEEANNLIEECEQAERLGAVDESLSEETQKAVLQWTKHDDSSDNFCEADDIQSPEAEYVDLLLNPERYTGYKGPDAWKIWNVIYEENCFKPQTIKRPLNPLASGQGTSEENTFYSWLEGLCVEKRAFYRLISGLHASINVHLSARYLLQETWLEKKWGHNITEFQQRFDGILTEGEGPRRLKNLYFLYLIELRALSKVLPFFERPDFQLFTGNKIQDEENKMLLLEILHEIKSFPLHFDENSFFAGDKKEAHKLKEDFRLHFRNISRIMDCVGCFKCRLWGKLQTQGLGTALKILFSEKLIANMPESGPSYEFHLTRQEIVSLFNAFGRISTSVKELENFRNLLQNIH

Assays:
Ero1α-null platelets = test: Platelet aggregation, Ero1α-null platelets; assay type: cell-based, mouse; settings: 50 μg/mL protein, 0.025 U/mL thrombin
Experimental: FIG. 7(A-L) is an exemplary embodiment of crucial intracellular ERO1α (endoplasmic reticulum oxidoreductase 1a) for platelet activation, aggregation, and thrombus formation in accordance with the present disclosure. FIG. 7A: Ex vivo platelet thrombus formation in a flow chamber assay. Adherent and aggregated platelets were stained with rhodamine-conjugated phalloidin and imaged by confocal microscopy. Representative images (bar, 10 μm). Surface coverage and thrombus volume were measured (mean±SD, n=4). FIG. 7(B-E): Aggregation and ATP secretion of wild type (WT) and Ero1α-null platelets were induced by 0.025 U/mL thrombin, 0.05 μg/mL CRP (collagen-related peptide), 0.5 μM A23187, or 2.5 μM ADP. […] Quantification graphs of aggregation and ATP secretion are presented as the mean±SD (n=3-4). FIG. 7G and FIG. 7H: P-selectin exposure and αIIbβ3 integrin activation of WT and Ero1α-null platelets were analyzed by flow cytometry. The data are presented as the geometric mean fluorescence intensity (MFI) value (mean±SD, n=3-4). […] P values determined by unpaired Student t test (FIG. 7(A-E) and FIG. 7(G-1)), ANOVA and Dunnett test (FIG. 7F), or Mann-Whitney U test (FIG. 7K and FIG. 7L). […]
FIG. 10(A-E) is an exemplary embodiment of 15E9 not affecting platelet activation and aggregation in accordance with the present disclosure. […] P values determined by unpaired Student's t-test (vs. mIgG1). […]

Ero1α KO mice = test: Intravital microscopy, laser-induced cremaster arteriolar injury, rescue in Ero1α KO mice; assay type: in vivo, mouse; settings: 4 μg/g BW into Ero1α KO mice
Experimental: FIG. 2 (A-C): DyLight 649-conjugated anti-CD42c and Alexa 488-conjugated rabbit IgG or polyclonal anti-ERO1α antibodies (0.3 μg/g body weight [BW]) were injected into wild type (WT) mice for intravital microscopy. Platelet accumulation and extracellular Ero1α were detected at the site of laser-induced cremaster arteriolar injury. FIG. 2A: Representative images. FIG. 2B and FIG. 2C: The median integrated fluorescence intensities of anti-CD42c (F platelet) and anti-ERO1α antibodies (F Ero1α; n=41-43 arterioles in 6 WT mice per group). FIG. 2(D-F): Intravital microscopy with WT control and Ero1α conditional knockout (CKO) and knockout (KO) mice. After laser-induced cremaster arteriolar injury, platelet accumulation and fibrin generation were detected by injection of DyLight 649-conjugated anti-CD42c and Alexa 488-conjugated anti-fibrin antibodies, respectively. FIG. 2D: Representative images. FIG. 2E and FIG. 2F: The median integrated fluorescence intensities of anti-CD42c (F platelet) and anti-fibrin (F fibrin) antibodies (n=36-44 arterioles in 6 mice per group). Quantification of the antibody signal at a different time point after laser injury. FIG. 2G and FIG. 2H: Ero1α KO mice were treated with recombinant wtERO1α or mutant ERO1α (m ERO1a) (Cys94Ser), 4 μg/g BW. After laser injury, platelets and fibrin were detected as described above (n=36-38 arterioles in 6 mice per group). FIG. 2I: The time to occlusion (TTO) was measured by a Doppler blood flow meter in WT control, Ero1α CKO/KO, and β3 KO mice after the application of 6.5% FeCl3 to a carotid artery (n=8-11 mice per group). FIG. 2J and FIG. 2K: After amputating the tail tip (5 mm), tail bleeding times and hemoglobin (Hb) contents were measured in WT control, Ero1α CKO/KO, and β3 KO mice (n=8-9 mice per group). Bars represent the median value. P values were determined by Mann-Whitney U test (FIG. 2E, FIG. 2F, and FIG. 2(1-K)) or ANOVA and Dunn test (FIG. 2G and FIG. 2H).
Intravital microscopy was performed in a mouse model of laser-induced cremaster arteriolar injury as previously described. WT (C57BL/6), littermate WT control, and CKO and KO male mice (8-10 weeks old) were anesthetized with intraperitoneal injection of ketamine and xylazine. The cremaster muscle was exteriorized and superfused with 37° C. bicarbonate-buffered saline throughout the experiment. Arteriolar wall injury was induced by laser ablation (Photonics Instruments) as previously described. Multiple thrombi were generated in at least 3 to 4 different arterioles of 1 mouse, with new thrombi formed upstream of earlier thrombi to minimize any contribution from thrombi generated earlier in the mouse. […]

Molecule	rescue of the defect in Ero1α-null platelet aggregation (Ero1α-null platelets)	rescue of fibrin generation (Ero1α KO mice)	rescue of platelet thrombus formation (Ero1α KO mice)
B1	did not rescue	minimal rescue effect	minimal rescue effect
B2	–	did not show any effect	did not show any effect
